Results published in publication PMC3320615, “β-Microseminoprotein Endows Post Coital Seminal Plasma with Potent Candidacidal Activity by a Calcium- and pH-Dependent Mechanism” (PLoS Pathogens, 2012).

B1: β-microseminoprotein (natural protein, human, UniProt P08118 21-114, looked up)
chain: SCYFIPNEGVPGDSTRKCMDLKGNKHPINSEWQTDNCETCTCYETEISCCTLVSTPVGYDKDNCQRIFKKEDCKYIVVEKKDPKKTCSVSEWII
notes: human β-microseminoprotein (MSP, PSP94), native protein purified from seminal plasma; also called MSP; PSP94

Columns and labels:
[1] = Liposome leakage (carboxyfluorescein release); format: biochemical; conditions: pH 6.0, % ± SD of leakage with Triton X-100, CF fluorescence 520 nm, 37°C, at least triplicate, DOPC/cholesterol liposomes
Method: Dry lipid films were prepared by dissolving dioleoylphosphatidylcholine (1,2-dioleoyl-sn-Glycero-3-phoshocholine, >99% purity, Avanti Polar Lipids, Alabaster, AL) (60 mol%) (DOPC) and either ergosterol or cholesterol (both >99% purity, Sigma) (40 mol%) in chlorofom, and then removing the solvent by evaporation under vacuum overnight. Subsequently, buffer (10 mM Tris, pH 7.4) was added together with 0.1 M carboxyfluorescein (CF) (Sigma, St Louis, MO). After hydration, the lipid mixture was subjected to eight freeze-thaw cycles consisting of freezing in liquid nitrogen and heating to 60°C. Unilamellar liposomes of about Ø140 nm were generated by multiple extrusions through polycarbonate filters (pore size 100 nm) mounted in a LipoFastminiextruder (Avestin, Ottawa, Canada) at 22°C. Untrapped CF was then removed by two gel filtrations (Sephadex G-50) at 22°C, with Tris buffer as eluent. CF release was determined by monitoring the emitted fluorescence at 520 nm from liposome dispersions (10 mM lipid in 10 mM Tris). An absolute leakage scale was obtained by disrupting the liposomes at the end of the experiment through addition of 0.8 mM Triton X100 (Sigma, St Louis, MO), causing 100% release and dequenching of CF. Although calcein is frequently used for pH-dependent leakage studies, the high charge of this dye has been noted to influence its leakage behavior in the presence of highly cationic peptides. Instead, therefore, CF was used as a leakage marker at both pH 6.0 and 7.4, avoiding pH-dependent fluorescence effects through neutralization prior to probing the limiting leakage in case of pH 6.0 leakage. Throughout, a SPEX-fluorolog 1650 0.22-m double spectrometer (SPEX Industries, Edison, NJ) was used for the liposome leakage assay. Measurements were performed in at least triplicate at 37°C.

C. albicans [2] = experiment: Antifungal gel overlay assay (AU-PAGE); format: cell-based, Candida albicans
Method: Gel overlay assay was performed essentially as described. Briefly, duplicate samples were run on native Acid Urea (AU-PAGE) gels in 5% (v/v) acetic acid at 100 V for 1 h 20 min. Candida albicans was grown over night, washed and resuspended in 10 mM NaPO4 pH 7.4 and approximately 1×10^5 CFU were added to 12 ml melted underlay agarose (10 mM NaPO4, pH 7.4, 0.03% SAB, 1% agarose type 1 (Sigma, St. Louis, MO)) and poured into a square Petri dish. One AU-gel was stained with Coomassie brilliant blue and one AU gel was washed 3×4 min in 10 mM NaPO4, pH 7.4 and then placed on top of the agarose and incubated for 4 h at 37°C. The AU gel was then removed and an overlay agarose (6% SAB, 1% agarosetype 1 (Sigma)) was poured on top of the underlay and incubated over night at 30°C. To make the clearing zones more visible, the agarose was stained with Coomassie brilliant blue followed by destaining.

E. coli (strain 37.4) = experiment: Antibacterial CFU assay; format: cell-based; conditions: purified MSP 10 µM + 20 µM EDTA or recombinant dialyzed MSP 10 µM + 10 µM EDTA; low and neutral pH; data not shown
Method: (§1) E. coli (strain 37.4), S. aureus (strain 5120), S. pyogenes (M5 Manfredo), S. agalactiae (SB1), and E. faecalis (strain 2374) were grown in THY medium (Todd Hewitt with addition of yeast) and on THY agar plates at 37°C with 5% (v/v) CO2. Candida albicans was grown over night, washed, and resuspended in 10 mM Tris, 5 mM glucose, pH 7.4 or pH 4. Approximately 4×10^3 to 10^4 CFU of C. albicans were incubated with the test substance in low or neutral pH buffer for 4 h at 37°C. After incubation, the suspension was diluted and plated. Colonies were counted after two days incubation of the plates at 30°C. Bacteria from overnight cultures were inoculated in fresh medium and grown for 3 h, washed in 10 mM Tris, 5 mM glucose pH 7.4. Approximately 8×10^4 CFU were incubated with sample in 10 mM Tris, 5 mM glucose pH 7.4 or pH 4 for 1 h at 37°C, diluted, plated and incubated over night at 37°C and the colonies counted.

[3] = tested on: E. faecalis (strain 2374); experiment: Antibacterial CFU assay; format: cell-based; conditions: purified MSP 10 µM + 20 µM EDTA or recombinant dialyzed MSP 10 µM + 10 µM EDTA; low and neutral pH; data not shown
Method: as §1

S. agalactiae (SB1) = experiment: Antibacterial CFU assay; format: cell-based; conditions: purified MSP 10 µM + 20 µM EDTA or recombinant dialyzed MSP 10 µM + 10 µM EDTA; neutral pH; data not shown
Method: as §1

S. aureus (strain 5120) = experiment: Antibacterial CFU assay; format: cell-based; conditions: purified MSP 10 µM + 20 µM EDTA or recombinant dialyzed MSP 10 µM + 10 µM EDTA; neutral pH; data not shown
Method: as §1

[4] = tested on: S. pyogenes (M5 Manfredo); experiment: Antibacterial CFU assay; format: cell-based; conditions: purified MSP 10 µM + 20 µM EDTA or recombinant dialyzed MSP 10 µM + 10 µM EDTA; neutral pH; data not shown
Method: as §1

C. albicans [5] = experiment: Scanning electron microscopy of C. albicans; format: cell-based, Candida albicans; conditions: 5 h; 20 µM MSP with 40 µM EDTA, or EDTA alone
Method: Specimens were washed with cacodylate buffer, and dehydrated with an ascending ethanol series from 50% (v/v) to absolute ethanol. The specimens were then subjected to critical-point drying in carbon dioxide, with absolute ethanol as intermediate solvent, mounted on aluminum holders, sputtered with 30 nm palladium/gold and examined in a JEOL JSM-350 scanning electron microscope. A small volume from each of the samples was also plated to check antifungal activity.

[6] = Size exclusion chromatography (dimerization); format: physicochemical; conditions: pH 7.5; 50 mM Tris, 150 mM NaCl; 1 mM calcium or 1 mM EDTA; HiPrep 16/60 Sephacryl S 100
Source text: Supplementary file ppat.1002625.s004.tif: Figure S3 Seize exclusion chromatography of MSP. […] (TIF) Click here for additional data file.

[7] = biological target: the molecule itself; experiment: SEC; HiPrep 16/60 Sephacryl S 100 column; 50 mM Tris, 150 mM NaCl, pH 7.5, with 1 mM calcium or 1 mM EDTA; native MSP

Row | Molecule | Liposome leakage ([1]; +EDTA) | Liposome leakage ([1]; without EDTA) | Clearing zone in antifungal gel overlay assay (C. albicans [2]) | Antibacterial activity in CFU assay (E. coli (strain 37.4)) | Antibacterial activity in CFU assay [3] | Antibacterial activity in CFU assay (S. agalactiae (SB1)) | Antibacterial activity in CFU assay (S. aureus (strain 5120)) | Antibacterial activity in CFU assay [4] | Effect on C. albicans by scanning electron microscopy (C. albicans [5]) | Oligomeric state on size exclusion chromatography [6] | stoichiometry N [7]
1 | RIFKKEDCKYI [MSP66–76, eleven residues at the very tip of the loop (residue 66–76)] | 0% | 0% |  |  |  |  |  |  |  |  | 
2 | B1 | 4±2% | 0% | displayed antifungal activity by producing a clearing zone | no antibacterial activity | no antibacterial activity | no antibacterial activity | no antibacterial activity | no antibacterial activity | aggregated with disrupted membranes causing cell content leakage | eluted as a dimer | 2
